B1: ustekinumab (antibody, V domains shown)
VH: EVQLVQSGAEVKKPGESLKISCKGSGYSFTTYWLGWVRQMPGKGLDWIGIMSPVDSDIRYSPSFQGQVTMSVDKSITTAYLQWNSLKASDTAMYYCARRRPGQGYFDFWGQGTLVTVSS
VL: DIQMTQSPSSLSASVGDRVTITCRASQGISSWLAWYQQKPEKAPKSLIYAASSLQSGVPSRFSGSGSGTDFTLTISSLQPEDFATYYCQQYNIYPYTFGQGTKLEIK
B2: H5L9 (antibody, human IgG1, kappa, V domains shown)
VH: EVQLVQSGAEVKKPGESLKISCQSSGYSFTTYWIGWVRQMPGQGLEWIGIMSPVDSDIRYNPMFRGQVTMSVDKSSSTAYLQWSSLKASDTAMYYCARRRPGQGYFDFWGQGTMVTVSS
VL: DIQMTQSPSSLSASVGDRVTITCKASQNVGSWLAWYQQKPGKAPKSLIYSASSRQSGVPSRFSGSGSGTDFTLTISSLQPEDFATYYCQQYDIYPFTFGQGTKLEIKR
notes: human IgG1 (P01857) / kappa (P01834) constant regions; also called humanized antibody H5L9

Legend:
human p40-His [1] = target: T1, human p40-His (human, UniProt P29460 23-328); assay: indirect ELISA, p40-His coat 0.25 µg/mL
T1 construct: Made by Akeso Biopharma; construct limits and tag not described; also called human IL-12/IL-23 p40 protein domain; human IL-12/IL-23 p40; not shown: His tag
T1 sequence (looked up): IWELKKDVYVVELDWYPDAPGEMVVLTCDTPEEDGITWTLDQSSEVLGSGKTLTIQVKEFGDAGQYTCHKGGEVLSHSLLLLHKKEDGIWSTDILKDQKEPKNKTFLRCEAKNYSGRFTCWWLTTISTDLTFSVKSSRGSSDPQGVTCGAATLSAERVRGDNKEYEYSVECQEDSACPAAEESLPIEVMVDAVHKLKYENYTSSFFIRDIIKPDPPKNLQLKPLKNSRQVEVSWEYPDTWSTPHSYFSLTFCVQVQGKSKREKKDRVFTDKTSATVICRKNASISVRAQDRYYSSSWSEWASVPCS
Method: (§1) A microplate was coated with human p40-His (Akeso Biopharma, Inc.; gene of p40: GeneBank NM002187). After incubation at 4° C. for no less than 12 h, the plate was washed with PBST, patted dry and blocked with a solution of 1% BSA in PBS. After blocking was completed, the plate was washed with PBST and patted dry. The antibody diluted with PBST solution in gradient was added into the wells of the plate, and the antibody dilution gradient is detailed in Table 1. The plate containing the test antibody was incubated at 37° C. for 30 min and then washed with PBST and patted dry. […] TMB (Neogen, 308177) was added for color developing for 5 min in the absence of light, and then stop solution was added to terminate the chromogenic reaction. Then the plate was put into a plate reader immediately, and the OD value of each well in the plate was read at 450 nm. The data were analyzed by SoftMax Pro 6.2.1.
The binding EC₅₀ of antibody was calculated by curve fitting using antibody concentration as the abscissa and absorbance value as the ordinate, and the results are shown in Table 4 below.

Human IL12 (His Tag) = target: T2, Human IL12 (His Tag) (human, UniProt P29459 23-219; P29460 23-328); assay: FACS competition, IL12-His (40 nM mixed 1:1) on 293T-IL-12Rβ1&IL-23R cells
T2 construct: Bought His-tagged heterodimer
T2 sequence (looked up) 1: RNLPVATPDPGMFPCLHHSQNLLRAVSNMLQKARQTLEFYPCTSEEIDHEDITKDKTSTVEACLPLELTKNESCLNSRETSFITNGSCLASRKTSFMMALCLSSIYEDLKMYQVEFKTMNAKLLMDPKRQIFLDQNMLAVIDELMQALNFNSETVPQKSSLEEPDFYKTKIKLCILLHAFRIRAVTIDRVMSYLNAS
T2 sequence (looked up) 2: T1 sequence (looked up)
Method: 200 μL of 1% PBSA was added into each sample, and the mixture was centrifuged at 1200 rpm for 5 min to discard the supernatant. According to experiment design, correspondingly diluted antibody (highest final concentration of 60 μg/mL, 3-fold dilution, 8 concentrations in total) and IL12-His (Sino Biological, Cat. No.: CT-050-H08H-20) (40 nM) were mixed at a ratio of 1:1, and a blank control was set. The mixture of antibody and IL12 was incubated on ice for 30 min and then added to the cell precipitate at 100 μL/sample. The resulting mixture was well mixed and incubated on ice for 60 min 200 μL of 1% PBSA was added, and the mixture was centrifuged at 1200 rpm for 5 min to discard the supernatant, and then washed twice. THETM His tag antibody (FITC) (Genscript, Cat. No.: A01620) was diluted at a ratio of 1:500 and added to each tube at 100 μL. The mixture was well mixed and incubated on ice for 40 min in the absence of light. 200 μL of 1% PBSA was added, and the mixture was centrifuged at 1200 rpm for 5 min to discard the supernatant, and then washed twice. 1% PBSA was added at 200 μL/tube, and the cells were resuspended and transferred to a flow cytometry tube for testing.

[2] = target: T3, human IL-23 (IL-23-His-Biotin) (human, UniProt Q9NPF7 20-189; P29460 23-328, biotin label, site not stated); assay: FACS competition, IL23-His-Biotin (4 µg/mL mixed 1:1) on 293T-IL-12Rβ1&IL-23R cells
T3 construct: Akesobio lot 20161209; His-tagged and biotinylated
T3 sequence (looked up) 1: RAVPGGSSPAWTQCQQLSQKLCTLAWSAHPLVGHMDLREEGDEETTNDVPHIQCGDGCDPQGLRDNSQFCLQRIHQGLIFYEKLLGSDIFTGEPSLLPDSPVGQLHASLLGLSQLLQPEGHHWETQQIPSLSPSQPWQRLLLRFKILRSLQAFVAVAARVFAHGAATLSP
T3 sequence (looked up) 2: T1 sequence (looked up)
Method: 200 μL of 1% PBSA was added into each sample, and the mixture was centrifuged at 1200 rpm for 5 min to discard the supernatant. According to experiment design, correspondingly diluted antibody (highest concentration of 60 μg/mL, 3-fold dilution, 8 concentrations in total) and human IL23-His-Biotin (Akeso Biopharma, Inc., Lot. No.: 20161209) (4 μg/mL) were mixed at a ratio of 1:1, and a blank control was set. The mixture of antibody and IL23-His-Biotin was incubated on ice for 30 min and then added to the cell precipitate at 100 μL/sample. The resulting mixture was well mixed and incubated on ice for 60 min. 200 μL of 1% PBSA was added, and the mixture was centrifuged at 1200 rpm for 5 min to discard the supernatant, and then washed twice. FITC Steptavidin (Biolegend, Cat. No.: 405202) was diluted at a ratio of 1:500 and added to each tube at 100 μL. The mixture was well mixed and incubated on ice for 40 min in the absence of light. 200 μL of 1% PBSA was added, and the mixture was centrifuged at 1200 rpm for 5 min to discard the supernatant, and then washed twice. 1% PBSA was added at 200 μL/tube, and the cells were resuspended and transferred to a flow cytometry tube for testing.

human p40-His [3] = target: T1, human p40-His; assay: indirect ELISA, p40-His coat 0.125 µg/mL
Method: as §1
The binding EC₅₀ of antibody was calculated by curve fitting using antibody concentration as the abscissa and absorbance value as the ordinate, and the results are shown in Table 1 below.

Binder	EC50 (human p40-His [1])	EC50 (Human IL12 (His Tag))	EC50 [2]	EC50 (human p40-His [3])
B1	0.077 nM	1.58 µg/mL	1.43 µg/mL	
B2				0.079 nM

Reference: patent US20220298235A1 (AKESO BIOPHARMA, published 2022)
